The source of these data is patent US20230133381A1.

Assay [1] has as its target human DR5 (human). As to the kind of experiment: SPR (BIAcore X100), human DR5 on CM5 chip, IgG injected, 1:1 Langmuir model. On the technique in general: In SPR one partner is held on a chip, and binding of the other changes the refractive index at the surface.
Assay [2] has as its target human DR5 (human). As to the kind of experiment: ELISA: human DR5 coated on the plate (10 ng/ml), antibody titrated, anti-human Fc-HRP, TMB, absorbance at 450 nm. (ELISA stands for enzyme-linked immunosorbent assay.)

What is called Kd is the free concentration of one partner at which half of the binding sites on the other are occupied at equilibrium, for simple one-to-one binding. Low values mean higher affinity, high ones lower affinity. As a reminder, the koff is the first-order rate constant of dissociation. What is called kon is the rate constant with which the complex forms. The EC50 (read off the curve) is the midpoint of the concentration-response curve.

Where a chain is given by its changes, count along the chain named. Bounds are passed on as bounds.

B1: DA8 (antibody, V domains shown)
VH: EVQLVESGGGLVQPGGSLRLSCAASGFTFSSFNMLWVRQAPGKGLEWVAGIGKSDRYTGYGSAVKGRFTISRDDSKSTVYLQMNSLRAEDTAVYYCVRDAGSGCGSGGWTGACIDTWGQGTLVTVSS
VL: DIQMTQSPSSLSASVGDRVTITCSGGDSYAGSYYYGWYQQKPGKAPKTLIYNNNNRPSGVPSRFSGSGSGTDFTLTISSLQPEDFATYYCGSRDSSYVGIFGQGTKVEIK
As to B1, in the assay with human DR5 (human) [1], the equilibrium dissociation constant (Kd) was under 6.25 pM, the koff is under 1e-05 s⁻¹ and the kon came out at 1.6e+06 M⁻¹ s⁻¹. Also, the 50% effective concentration (EC50 (read off the curve)) in the assay with human DR5 (human) [2] was 0.02 µg/mL.

B2: DA20 (antibody, V domains shown)
VH: B1 VH
VL: B1 VL with G68R, S96A, Y97G, V98M, I100A
For B2, in the assay with human DR5 (human) [1], the equilibrium dissociation constant (Kd) came to 12 pM, the koff is 1.21e-05 s⁻¹ and the on-rate constant (kon) amounted to 1e+06 M⁻¹ s⁻¹.

B3: DA6 (antibody, V domains shown)
VH: B1 VH with V97A
VL: B1 VL with G68T
In the assay with human DR5 (human) [1], B3 registered a Kd of 0.53 pM, a dissociation rate constant (koff) of 4.2e-06 s⁻¹ and an association rate constant (kon) of 7.8e+06 M⁻¹ s⁻¹.

B4: DA12 (antibody, V domains shown)
VH: B1 VH with D74T, S77N, V79A, V97S
VL: B1 VL with R56L, P57M, S58P, G68R
In the assay with human DR5 (human) [1], B4 displayed a dissociation constant Kd of 12.7 pM, a koff of 2.99e-05 s⁻¹ and an association rate constant (kon) of 2.37e+06 M⁻¹ s⁻¹.

B5: DA16 (antibody, V domains shown)
VH: B1 VH with D74T, S77N, V79A, V97S
VL: B1 VL with G68R, Y97G, V98A, I100G
In the assay with human DR5 (human) [1], B5 registered a Kd of 26.1 pM, a koff of 5.53e-05 s⁻¹ and a kon of 2.11e+06 M⁻¹ s⁻¹.

B6: DA9 (antibody, V domains shown)
VH: B1 VH with V79L
VL: B1 VL with G68R
B6: in the assay with human DR5 (human) [1], the dissociation constant (Kd) came to 0.071 pM, the koff was 4e-07 s⁻¹ and the on-rate (kon) amounted to 5.6e+06 M⁻¹ s⁻¹. Further, the concentration for a half-maximal effect (EC50 (read off the curve)) with human DR5 (human) [2] amounted to 0.02 µg/mL.

B7: DA18 (antibody, V domains shown)
VH: B1 VH
VL: B1 VL with G68R, S96D, Y97G, V98G, I100R
As for B7, in the assay with human DR5 (human) [1], the Kd amounted to 27.7 pM, the dissociation rate constant (koff) turned out to be 3.67e-05 s⁻¹ and the kon stood at 1.33e+06 M⁻¹ s⁻¹. In the assay with human DR5 (human) [2], this molecule came in with a half-maximal effective concentration (EC50 (read off the curve)) of 0.03 µg/mL.

B8: DA13 (antibody, V domains shown)
VH: B1 VH with D74T, S77N, V79A, V97S
VL: B1 VL with G68R, S96A, Y97G, V98M, I100A
In the case of B8, in the assay with human DR5 (human) [1], the Kd turned out to be 11.2 pM, the koff amounted to 2.94e-05 s⁻¹ and the on-rate (kon) was 2.62e+06 M⁻¹ s⁻¹.

B9: DA4 (antibody, V domains shown)
VH: B1 VH with S77N
VL: B1 VL with G68T
In the assay with human DR5 (human) [1], B9 came in with a dissociation constant Kd of 0.1 pM, a koff of 1.2e-07 s⁻¹ and a kon of 1.2e+06 M⁻¹ s⁻¹.

B10: DA10 (antibody, V domains shown)
VH: B1 VH with D74T, S77N, V79A, V97S
VL: B1 VL with G68R
As for B10, in the assay with human DR5 (human) [1], the dissociation constant Kd came to 7 pM, the koff amounted to 1.6e-05 s⁻¹ and the association rate constant (kon) came to 2.3e+06 M⁻¹ s⁻¹.

B11: DA1 (antibody, V domains shown)
VH: B1 VH
VL: B1 VL with G68T
With B11, in the assay with human DR5 (human) [1], the Kd was under 2 pM, the off-rate (koff) was under 1e-05 s⁻¹ and the kon amounted to 4.9e+06 M⁻¹ s⁻¹.

B12: DA7 (antibody, V domains shown)
VH: B1 VH with V97S
VL: B1 VL with G68T
With B12, in the assay with human DR5 (human) [1], the Kd is 1.9 pM, the koff is 2.9e-06 s⁻¹ and the kon came out at 1.4e+06 M⁻¹ s⁻¹.

B13: DA17 (antibody, V domains shown)
VH: B1 VH
VL: B1 VL with R56K, P57A, S58K, G68R
As for B13, in the assay with human DR5 (human) [1], the Kd came out at 23.5 pM, the koff amounted to 5.97e-05 s⁻¹ and the on-rate constant (kon) turned out to be 2.54e+06 M⁻¹ s⁻¹. The EC50 (read off the curve) with human DR5 (human) [2] came out at 0.03 µg/mL.

B14: DA3 (antibody, V domains shown)
VH: B1 VH with D74T
VL: B1 VL with G68T
As for B14, in the assay with human DR5 (human) [1], the dissociation rate constant (koff) was under 1e-05 s⁻¹ and the kon was determined as 4.9e+06 M⁻¹ s⁻¹.

B15: DA23 (antibody, V domains shown)
VH: B1 VH with G103P, S106K
VL: B1 VL with G68T
In the assay with human DR5 (human) [1], B15 showed a Kd of 40.3 pM, a koff of 2.8e-05 s⁻¹ and an on-rate (kon) of 696000 M⁻¹ s⁻¹. In the assay with human DR5 (human) [2], this molecule came in with a half-maximal effective concentration (EC50 (read off the curve)) of 0.01 µg/mL.

B16: DA21 (antibody, V domains shown)
VH: B1 VH
VL: B1 VL with G68R, Y97G, V98A, I100G
In the assay with human DR5 (human) [1], B16 displayed a dissociation constant (Kd) of 6.43 pM, a koff of 7.17e-06 s⁻¹ and an on-rate (kon) of 1.11e+06 M⁻¹ s⁻¹.

B17: DA14 (antibody, V domains shown)
VH: B1 VH with D74T, S77N, V79A, V97S
VL: B1 VL with R56K, P57A, S58K, G68R
Turning to B17, in the assay with human DR5 (human) [1], the Kd is 23.5 pM, the koff came to 0.0001 s⁻¹ and the kon stood at 4.27e+06 M⁻¹ s⁻¹.

B18: DA22 (antibody, V domains shown)
VH: B1 VH with G103P
VL: B1 VL with G68T
In the assay with human DR5 (human) [1], B18 returned a Kd of 34.2 pM, a koff of 3.19e-05 s⁻¹ and an association rate constant (kon) of 932000 M⁻¹ s⁻¹. In the assay with human DR5 (human) [2], this molecule displayed an EC50 (read off the curve) of 0.02 µg/mL.

B19: DA15 (antibody, V domains shown)
VH: B1 VH with D74T, S77N, V79A, V97S
VL: B1 VL with G68R, S96D, Y97G, V98G, I100R
In the assay with human DR5 (human) [1], B19 came in with a Kd of 1.09 pM, an off-rate constant (koff) of 2.78e-06 s⁻¹ and a kon of 2.56e+06 M⁻¹ s⁻¹. Besides, the EC50 (read off the curve) with human DR5 (human) [2] turned out to be 0.01 µg/mL.

B20: DA2 (antibody, V domains shown)
VH: B1 VH
VL: B1 VL with G68R
In the case of B20, in the assay with human DR5 (human) [1], the Kd is under 5.3 pM and the kon stood at 1.9e+06 M⁻¹ s⁻¹.

B21: DA35 (antibody, V domains shown)
VH: AVTLDESGGGLQTPGGGLSLVCKGSGFTFSSFNMLWVRQAPGKGLEWVAGIGKSDRYTGYGSAVKGRATISRDDGQSTARLQMNSLRAEDTAVYYCVKDAGSGCGSGGWTGACIDTWGHGTEVIVSS
VL: LTQPSSVSANLGGTVEITCSGGDSYAGSYYYGWYQQKAPGSAPVTVIYNNNNRPSNIPSRFSGSTSGSTATLTITGVQAEDEATYFCGSRDSSYVGIFGAGTTLTVL
B21: in the assay with human DR5 (human) [1], the Kd worked out at 80.1 pM, the koff worked out at 9.12e-05 s⁻¹ and the on-rate constant (kon) stood at 1.13e+06 M⁻¹ s⁻¹.

B22: DA34 (antibody, V domains shown)
VH: B21 VH with R80Y
VL: B21 VL with F86Y
In the assay with human DR5 (human) [1], B22 gave a Kd of 94.2 pM, a dissociation rate constant (koff) of 9.5e-05 s⁻¹ and a kon of 1e+06 M⁻¹ s⁻¹.

B23: DA27 (antibody, V domains shown)
VH: B21 VH with A79V, M83L, S85N, A92G, V93T
VL: B21 VL
As to B23, in the assay with human DR5 (human) [1], the dissociation constant (Kd) is 1.92 pM, the off-rate constant (koff) came to 2.24e-06 s⁻¹ and the kon amounted to 1.17e+06 M⁻¹ s⁻¹.

B24: DA25 (antibody, V domains shown)
VH: B21 VH with A79V, R80Y, A92G, V93T
VL: B21 VL with T84V
Turning to B24, in the assay with human DR5 (human) [1], the dissociation constant (Kd) amounted to 1.62 pM, the off-rate (koff) turned out to be 1.71e-06 s⁻¹ and the kon was 1.05e+06 M⁻¹ s⁻¹.

B25: DA32 (antibody, V domains shown)
VH: B21 VH with A79V, M83L, S85N
VL: B21 VL with T84V
On to B25, for which, in the assay with human DR5 (human) [1], the dissociation constant Kd is 75.1 pM, the dissociation rate constant (koff) stood at 8.59e-05 s⁻¹ and the kon came out at 1.14e+06 M⁻¹ s⁻¹.

B26: DA24 (antibody, V domains shown)
VH: B21 VH with A79V, M83L, S85N, A92G, V93T
VL: B21 VL with F86Y
In the assay with human DR5 (human) [1], B26 registered a Kd of 1.02 pM, a dissociation rate constant (koff) of 1.23e-06 s⁻¹ and an association rate constant (kon) of 1.2e+06 M⁻¹ s⁻¹.
